± gives the standard error. For some assays here: This sample holds only a part of the variants without activity.
B1: glmS ribozyme (parent)
chain: AUAAAAGCGCCAGAACUACAGAAAUGUAGUUGACGAGGAGGAGGUUUAUCGAAUUUUCGGCGGAUGCCUCCAAA

Columns and labels:
Settings in all cases: with glucosamine-6-phosphate
[1] = variants of: B1; assay: kcat; higher = faster cleavage; RNA array
Summary of the method: (§1)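 In situ transcription by E. coli RNA polymerase produced barcoded ribozyme variants on sequenced MiSeq chips, and a hybridised Cy3 probe tracked them at 37 °C. Glucosamine-6-phosphate was flowed in at 40 μM to 10 mM in HEPES/KCl/Mg(OAc)2 buffer. kcat and KM were taken from weighted Michaelis–Menten fits of kobs values from exponential decay fits.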

[2] = variants of: B1; assay: self-cleavage kobs at 40 uM GlcN6P; higher = faster cleavage; RNA array
Summary of the method: as §1

[3] = variants of: B1; assay: self-cleavage kobs at 10000 uM GlcN6P; higher = faster cleavage; RNA array
Summary of the method: as §1

[4] = variants of: B1; assay: self-cleavage kobs at 160 uM GlcN6P; higher = faster cleavage; RNA array
Summary of the method: as §1

[5] = variants of: B1; assay: KM; higher = weaker cofactor use; RNA array
Summary of the method: as §1

[6] = variants of: B1; assay: self-cleavage kobs at 640 uM GlcN6P; higher = faster cleavage; RNA array
Summary of the method: as §1

[7] = variants of: B1; assay: self-cleavage kobs at 2500 uM GlcN6P; higher = faster cleavage; RNA array
Summary of the method: as §1

Row | Variant | kcat [1] [s⁻¹] | self-cleavage kobs at 40 uM GlcN6P [2] [s⁻¹] | self-cleavage kobs at 10000 uM GlcN6P [3] [s⁻¹] | self-cleavage kobs at 160 uM GlcN6P [4] [s⁻¹] | KM [5] [µM] | self-cleavage kobs at 640 uM GlcN6P [6] [s⁻¹] | self-cleavage kobs at 2500 uM GlcN6P [7] [s⁻¹]
1 | A14U G32C C71A | 3.18e-05 ± 4.6e-06 | < 1e-05 | 3.33e-05 ± 1.2e-05 | – | – | – | –
2 | A14C U31A A64C | 1.75e-05 ± 3.8e-06 | – | – | < 1e-05 | – | – | –
3 | A14U G43A | 4.42e-05 ± 1.9e-05 | – | – | – | – | – | –
4 | A14G G32C | 0.000222 ± 9e-06 | – | 0.000188 ± 2.8e-05 | – | 1900 ± 190 | 5.72e-05 ± 1.5e-05 | 0.000115 ± 4.1e-05
5 | A15G A52U | 0.000384 ± 8.3e-05 | – | 0.00024 ± 2.3e-05 | – | 5400 ± 2000 | 3.21e-05 ± 7.2e-06 | 0.000147 ± 1.6e-05
6 | A15G A52G | 0.00182 ± 0.00044 | – | 0.0015 ± 0.00019 | 8.59e-05 ± 2.3e-05 | 3750 ± 1400 | 0.000293 ± 3.7e-05 | 0.000596 ± 8.6e-05
7 | A14U A39U A52G | 0.00264 ± 0.00045 | – | 0.000214 ± 3.7e-05 | – | – | – | 5.72e-05 ± 1.2e-05
8 | A14G G51A | 1.48e-05 ± 1.8e-06 | – | – | – | – | – | –
9 | A15C U47C | 0.000622 ± 8.7e-05 | – | 0.000465 ± 7.5e-05 | – | 3550 ± 830 | 0.000108 ± 2e-05 | 0.000244 ± 4.5e-05
10 | A14G C61U | 3.27e-05 ± 1.8e-06 | – | 3.02e-05 ± 6.3e-06 | – | 592 ± 240 | – | 2.91e-05 ± 9.3e-06
11 | A14G C16A | 0.00509 ± 0.0016 | 0.000249 ± 4.2e-05 | 0.00789 ± 0.0017 | 0.000745 ± 0.00023 | 847 ± 380 | 0.0021 ± 0.00042 | 0.00276 ± 0.00082
12 | A14C U31G G40C | 0.00179 ± 0.00038 | 5.2e-05 ± 1.1e-05 | 0.00184 ± 0.00041 | – | 1560 ± 520 | 0.000477 ± 9.7e-05 | 0.00097 ± 0.00023
13 | A14G U45A | 0.077 ± 0.015 | 0.00233 ± 0.00047 | 0.0701 ± 0.026 | 0.00764 ± 0.0014 | 1340 ± 310 | 0.0331 ± 0.0099 | 0.0452 ± 0.016
14 | A14U U49G | 0.000127 ± 2.5e-06 | – | 9.65e-05 ± 9.5e-06 | – | 3130 ± 200 | 2.09e-05 ± 1e-05 | 5.86e-05 ± 2.3e-05
15 | A15C A64C | 1.33e-05 ± 4.6e-06 | – | – | – | – | – | –
16 | A15G C58A | 0.000835 ± 8.2e-05 | – | 0.000537 ± 5.2e-05 | 2.68e-05 ± 1.2e-05 | 5240 ± 790 | 8.63e-05 ± 1e-05 | 0.000303 ± 4e-05
17 | A15G C58U | 0.000166 ± 4e-05 | – | 7.17e-05 ± 9.6e-06 | – | – | – | 2.52e-05 ± 1.2e-05

Row | Variant | kcat [1] [s⁻¹] | self-cleavage kobs at 40 uM GlcN6P [2] [s⁻¹] | self-cleavage kobs at 10000 uM GlcN6P [3] [s⁻¹] | self-cleavage kobs at 160 uM GlcN6P [4] [s⁻¹] | KM [5] [µM] | self-cleavage kobs at 640 uM GlcN6P [6] [s⁻¹] | self-cleavage kobs at 2500 uM GlcN6P [7] [s⁻¹]
18 | A15C U47C C71U | 0.000301 ± 5.9e-06 | – | 0.000275 ± 4.5e-05 | – | 867 ± 47 | 0.000129 ± 2.7e-05 | 0.000228 ± 4.9e-05
19 | A14C G35C | < 1e-05 | < 1e-05 | < 1e-05 | – | – | – | –
20 | A15C U45C A53G U69C | 0.000427 ± 8e-05 | < 1e-05 | 0.000288 ± 8.5e-05 | – | 3740 ± 1200 | 5.45e-05 ± 2e-05 | 0.000198 ± 4.6e-05
21 | A14C U69C | 0.00147 ± 0.00041 | 5.59e-05 ± 1.2e-05 | 0.00131 ± 0.0002 | 9.64e-05 ± 1.4e-05 | 2100 ± 820 | 0.000344 ± 6.1e-05 | 0.000686 ± 0.00015
22 | A14C U69A | 0.000125 ± 1.5e-05 | – | 0.00011 ± 1.8e-05 | 2.61e-05 ± 1.2e-05 | 380 ± 170 | 9.86e-05 ± 1.9e-05 | 0.000115 ± 1.8e-05
23 | A14U C68A | 2.98e-05 ± 1e-05 | – | – | – | – | – | 3.98e-05 ± 1.4e-05
24 | A15C U46G | 0.00166 ± 0.00022 | – | 0.00129 ± 0.00019 | 8.08e-05 ± 2.2e-05 | 3240 ± 690 | 0.000271 ± 4.6e-05 | 0.000681 ± 0.00011
25 | A14G A33G G37U | < 1e-05 | < 1e-05 | – | < 1e-05 | – | – | –
26 | A15C G41A | 0.000104 ± 4.7e-06 | – | 9.45e-05 ± 1.5e-05 | – | 744 ± 120 | 4.65e-05 ± 1.2e-05 | 8.56e-05 ± 1.8e-05
27 | A15C G41U | 0.000171 ± 7.6e-06 | – | 0.000154 ± 2.6e-05 | – | 879 ± 120 | 7.33e-05 ± 2.3e-05 | 0.000137 ± 3.4e-05
28 | A14G A15G C50U C68U | 5.28e-05 ± 7.8e-06 | – | 4.76e-05 ± 1.2e-05 | – | – | 7.36e-05 ± 2e-05 | 4.92e-05 ± 1.8e-05
29 | A15G C34G | < 1e-05 | < 1e-05 | – | – | – | < 1e-05 | –
30 | A14C G41A | 0.000497 ± 9e-05 | – | 0.000358 ± 6.2e-05 | 3.59e-05 ± 1.5e-05 | 3490 ± 1000 | 6.95e-05 ± 1.3e-05 | 0.000234 ± 4.5e-05
31 | A14G U47A | 0.00972 ± 0.0015 | 0.00113 ± 0.00022 | 0.00772 ± 0.0019 | 0.0041 ± 0.0011 | 275 ± 78 | 0.00942 ± 0.0021 | 0.00943 ± 0.002
32 | A14U C70A | 0.000118 ± 4.4e-06 | – | 0.000112 ± 1.1e-05 | 2.57e-05 ± 8.7e-06 | 568 ± 71 | 6.15e-05 ± 8e-06 | 9.59e-05 ± 1e-05
33 | A14U C70G | 0.000149 ± 3.1e-05 | – | – | 5.56e-05 ± 7.3e-06 | – | 8.73e-05 ± 9.3e-06 | 0.000147 ± 1.8e-05
34 | A14U A36U | < 1e-05 | – | < 1e-05 | < 1e-05 | – | – | < 1e-05

From the supplement of paper PMC7125110
